Laboratory results as given in patent US12065466B2, “Methods and compositions for protein sequencing” (Quantum-Si Incorporated, priority 2020, dated 2024).

System: amino acid at a terminal position of a polypeptide
Assay: Amino acid binding preference of recognition proteins (Tables 1 and 2)
Details: Table 1, ClpS proteins; amino acid identity at a terminal position of a polypeptide; inferred from literature and/or demonstrated by the inventors
Text: It should be appreciated that these sequences and other examples described herein are meant to be non-limiting, and recognition molecules in accordance with the application can include any homologs, variants thereof, or fragments thereof minimally containing domains or subdomains responsible for peptide recognition.

| Molecule | Binding Pref. |
| --- | --- |
| PS548: PS372-homologous ClpS protein, SEQ ID NO: 62 (protein, listed as Gemmataceae bacterium) MSDTITLPEEKTDVRTKRQPPYHVILLNDDDHTYQYVIYMLQTLFGHPPETGFKMAQEVDKTGRVIVDTTSLERAELKRDQIHAFGPDPYIERCKGSMSAMIEPSE | I, L, V |
| PS545: PS372-homologous ClpS protein, SEQ ID NO: 59 (protein, listed as Planctomycetales bacterium) MSEPMTLPAIPQPRLKERTQRQPPYNVILLNDDDHSYEYVIAMLQVLFGYPREKGYQMAKEVDSTGRVILLTTTREHAELKQEQIHAFGPDPLMARCQGSMTAVIEPAV | I, L, V |
| PS434: ClpS protein, SEQ ID NO: 57 (protein) MSRLPWKQEAKFAATVIIDFPDATLEAPTIEKKEATEQQIEMPWNVVVHNDPVNLMSYVTMVFQRVFGYPRERAEKHMLEVHHSGRSILWSGLRERAELYVQQLHGYLLLATIEKTV | F, Y, W, L |
| PS432: ClpS protein, SEQ ID NO: 55 (protein) MIGVEARTSSAPELAIETEIRLAGLWHVIVINDPVNLMSYVVMVLRKIFGFDDTKARKHMLEVHENGRSIVWSGEREPAEAYANTLHQWHLSAVLERDETD | F, W |
| PS550: PS372-homologous ClpS protein, SEQ ID NO: 64 (protein, listed as Planctomycetes bacterium) MPTFTEPEVVNDTRILPPYHVILLNDDDHTYEYVIHMLQTLFGHPQERGFQLAVEVDKKGKAIVFTTSKEHAEFKRDQIHAFGADPLSSKNCKGSMSAVIEPSF | I, L, V |
| PS430: ClpS protein, SEQ ID NO: 53 (protein) MQPFEETYTDVLDEVVDTDVHNLVVFNDDVNTFDHVIETLIDVCKHTPEQAEQCTLLIHYKGKCSVKNGSWEELVPMRNEICRRGISAEVLK | F, Y, W, L |
| PS553: PS372-homologous ClpS protein, SEQ ID NO: 67 (protein, listed as Planctomycetes bacterium) MPASASAVTEPPVSLPEAAAPRPKDRPKRQPRYHVILWNDDDHTYQYVVAMLRQLFGHPPEKGFTLAKQVDKDGRVVVLTTTKEHAELKRDQIHAFGADRLLARSKGSMSASIEPEASTG | I, L, V |
| PS546: PS372-homologous ClpS protein, SEQ ID NO: 60 (protein, listed as Planctomycetales bacterium) MSDTITLPGRPEVERDERTRRQPPYNVILHNDDDHTFEYVIVMLNQLFGYPPEKGYEMAKEVHLNGRVIVLTTSKEHAELKRDQIHAFGPDPFSSKDCKGSMSASIEPAY | I, L, V |
| PS559: PS372-homologous ClpS protein, SEQ ID NO: 73 (protein, listed as Planctomycetaceae bacterium) MNQAAISPNPDIKPNPSTHKKRASQRQPRYHVILWNDNDHTYHYVVTMLQKLFGHPPRTGIKMATEVDKKGKVIVLTTSREHAELKRDQIHAFGADKLIRRSKGAMAASIEPES | I, L, V |
| PS560: PS372-homologous ClpS protein, SEQ ID NO: 74 (protein, listed as Planctomycetes bacterium) MTETITTPAERTQTQAEPRSDRAWLWNVVLLDDDEHTYEYVIRMLHTLFGMPVERAFRLAEEVDARGRAVVLTTHKEHAELKRDQVHAFGKDALIASCAGSMSAVLEPAECGSDDED | I, L, V |
| PS555: PS372-homologous ClpS protein, SEQ ID NO: 69 (protein, Planctomycetes bacterium RBG_16_64_12) MADSAQTGVAEPIQETLRRRKLRDDRRPKRQPPYHVILWNDNDHTYAYVVVMLMQLFGYPAEKGYQLASEVDTQGRAVVLTTTKEHAELKRDQIHAYGKDGLIEKCKGSMWATIEPAPGE | I, L, V |
| PS554: PS372-homologous ClpS protein, SEQ ID NO: 68 (protein, listed as Planctomycetes bacterium) MSDSASATVEVQADPPADATARSQPTPARSTGSKPKRQPRYHVVLWNDDDHTYEYVIAMLRRLFGIEPEKGFRIAEEVDQSGRAVVLTTTREHAELKRDQIHAFGADRLLARSKGSMSASIEPEA | I, L, V |
| PS552: PS372-homologous ClpS protein, SEQ ID NO: 66 (protein, Fimbriiglobus ruber) MSKTSTLPEVESESAQKLKYQPPYHVILLNDDDHSYVYVITMLKELFGHPEQKGYQLADAVDKQGRAIVFTTTREHAELKQEQIHAYGPDPTIPRCKGAMTAVIEPAE | I, L, V |
| PS558: PS372-homologous ClpS protein, SEQ ID NO: 72 (protein, listed as Planctomycetes bacterium) MTATTADPDRTTAEKTTKKARRSGQPKRQPRYHVILWNDNDHTYQYVVAMLQQLFGHPATTGLKLATEVDRTGRAVILTTTREHAELKRDQIHAFGADRLLARSKGAMSASIEPEAE | I, L, V |
| PS551: PS372-homologous ClpS protein, SEQ ID NO: 65 (protein, listed as Rubrobacter indicoceani) MPSAAPAKPKTKRQSRTQGMPPYNVVLLDDDDHTYGYVIEMLNKVFGHPPEKGFELATEVDKNGRVIVMTTNLEVAELKRDEVHAFGPDPLMPRSKGSMSAVVERAG | I, L, V |
| PS433: ClpS protein, SEQ ID NO: 56 (protein) MMSSLKECSIQALPSLDEKTKTEEDLSVPWKVIVLNDPVNLMSYVVMVFRKVFGYNENKATKHMMEVHQLGKSVLWTGQREEAECYAYQLQRWRLQTILEKDD | F, Y, W, L |
| PS556: PS372-homologous ClpS protein, SEQ ID NO: 70 (protein, listed as Blastopirellula marina) MGDSNTSVAEPGEVTVVTTKPAPKKAKPKRQPKYHVVLWNDDDHTYEYVILMMHELFGHPVEKGFQIAKTVDADGRAICLTTTKEHAELKRDQIHAYGKDELIARCRGSMSSTIEPEC | I, L, V |
| PS435: ClpS protein, SEQ ID NO: 58 (protein) MTLSVALGPDTQESTQTGTAVSTDTLTAPDIPWNLVIWNDPVNLMSYVSYVFQSYFGYSETKANKLMMEVHKKGRSIVAHGSKEQVEQHAVAMHGYGLWATVEKATGGNSGGGKSGGPGKGKGKRG | F, Y, W, L |
| PS549: PS372-homologous ClpS protein, SEQ ID NO: 63 (protein, listed as Planctomycetes bacterium) MSESITTLPKKSRRLKEEEEQKTKRQPPYNVILLNDDDHTFEYVIFMLQKLFGHPPERGMQMAKEVHTTGRVIVMTTALELAELKRDQIHAFGPDPLIDRCKGSMSATIEPAPI | I, L, V |
| PS547: PS372-homologous ClpS protein, SEQ ID NO: 61 (protein, listed as Gemmataceae bacterium) MGFPTDFRQSIEISTPLGSQQPRFSNASSEPALADPVLVINPRIQPRYHVILLNDDDHTYRYVIEMMLIVFGHPPEKGFLIAKEVDKAGRAICLTTSLEHAEFKQEQVHAYGADPYFGPKCKGSMTAVLEPAE | I, L, V |
